We go through two molecules from article PMC3064778.

One data set deals with AddAB (Bacillus subtilis, UniProt P23478;P23477 1-1232;1-1166). The data set is described as follows: EMSA. For orientation: Mobility shift assays separate free from complexed probe on a gel.
A further data set has as its target AddANBN (Bacillus subtilis, UniProt P23478;P23477 1-1232;1-1166, D1172A;D961A). The data set is described as follows: EMSA.

B1: Bind15 (dsDNA)
DNA 1: CCGCCTCTTGGCCGATTCA
DNA 2: TCGGCCAAGAGGCGGTTTG
In the case of B1, in the data set with AddAB, the binding result is given as “binds”.

B2: Cy5Bind15 (dsDNA)
DNA 1: CCGCCTCTTGGCCGATTCA
DNA 2: TCGGCCAAGAGGCGGTTTG
B2: the binding result with AddANBN was “binds”.
